This passage reports dH results from article PMC2839365.

ZU5 domain of ankyrin, sequence (P16157 913-1068): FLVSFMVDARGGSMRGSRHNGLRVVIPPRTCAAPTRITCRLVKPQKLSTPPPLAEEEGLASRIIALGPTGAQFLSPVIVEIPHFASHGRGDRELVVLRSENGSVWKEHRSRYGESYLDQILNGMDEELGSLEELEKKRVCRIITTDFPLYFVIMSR

This assay has as its target ZU5 domain of ankyrin. Description: ITC. (In general: Isothermal titration calorimetry measures the heat released or taken up as one component is titrated into another.)
In turn, βI14-15 D1781A (domain or fragment) yielded a dH of 5.52 kcal/mol.

In turn, βI14-15 D1700A (domain or fragment) gave a dH of 4.42 kcal/mol.

Regarding βI14-15 E1784A (domain or fragment), the dH came to 5.21 kcal/mol.

Turning to βI14-15 T1788A (domain or fragment), the dH worked out at 2.08 kcal/mol.

As for βI14-15 A1867P (domain or fragment), the dH was 0.904 kcal/mol.

βI14-15 Y1866A (domain or fragment): the dH came out at 2.52 kcal/mol.

Take βI14-15 E1708A (domain or fragment): the dH came to 3.27 kcal/mol.

On to “wild type βI-spectrin 14-15 di-repeat (domain or fragment)”, for which the dH came to 5.98 kcal/mol.

βI14-15 E1710A (domain or fragment) showed a dH of 3.73 kcal/mol.

Take βI14-15 E1703A (domain or fragment): the dH amounted to 4.82 kcal/mol.

As for βI14-15 D1701A (domain or fragment), the dH worked out at 4.64 kcal/mol.
